Drawing on the supplement of paper PMC10567573, this text covers protein stability index for 72 sequences.

The data set can be described thus: protein stability index of a GFP-peptide fusion (GPS, HEK-293T) (PSI 1-6); higher = more stable.
The mark [1] stands for this setting: treatment: DMSO, c terminus: a fixed tail appended.
The mark [2] stands for this setting: treatment: MLN4924 1 uM, 8 h, c terminus: a fixed tail appended.
[3] abbreviates: treatment: DMSO, c terminus: native.
[4] abbreviates: treatment: MLN4924 1 uM, 8 h, c terminus: native.

± gives the standard deviation.
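Note: 24-mer peptide tiles fused after GFP, lentivirally expressed, FACS-sorted into six equal bins by GFP/DsRed ratio, decoded by Illumina sequencing, PSI is the read-weighted mean bin number.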

The sequence SFRAGSKGLSGGFGSRSLYSLGGV [KRT71] registered a protein stability index under setting [1] of 2.12 ± 0.21 and a protein stability index under setting [2] of 2.77 ± 0.33.

For SGMVTIITGLPLDNPSVLSGPMQA [SMG5], the protein stability index reads like this: under setting [1], 2.32 ± 0.35; under setting [2], 2.14 ± 0.39.

With SGQYRELGGAIDFGAAYVLEQASS [ATL3], the protein stability index came out at 3.47 ± 0.27 under setting [1] and 3.61 ± 0.41 under setting [2].

As for SHAGKVVLRSWYEKNKHIFPASRW [FAM50A], the protein stability index was 2.4 ± 0.3 under setting [1] and 2.58 ± 0.21 under setting [2].

SHAIHVEEQSDQSFSSLEPDNEQL [IQUB]: the protein stability index by setting is: under setting [1], 5.38 ± 0.27; under setting [2], 5.63 ± 0.17.

In the case of SHHSKHKAPSKLGLIISGPILQEG [DLC1], the protein stability index runs as follows: under setting [1], 3.08 ± 0.2; under setting [2], 3.28 ± 0.13.

With SIHYAAAYGHRQCLELVSCFVLFS [ANKRD44], the protein stability index by setting is: under setting [1], 2.25 ± 0.44; under setting [2], 2.2 ± 0.52.

With SILFGFWTSFICDTYIVLAWISKI [SMIM2], the protein stability index under setting [1] was determined as 3.15 ± 0.34 and the protein stability index under setting [2] turned out to be 3.31 ± 0.25.

As for SKLASMSNDFKSVLEVRTENLKQQ [STX5], the protein stability index is, setting by setting: under setting [1], 4.04 ± 0.28; under setting [2], 4.21 ± 0.32.

For SKNGNGLKNTPRFKRRRVRRRRME [PCMTD2], the protein stability index by setting is: under setting [1], 4.6 ± 0.2; under setting [2], 4.58 ± 0.32.

On to SLAGALGVKFVGLFIILQVGLNTI [POMT2], for which the protein stability index runs as follows: under setting [1], 3.27 ± 0.16; under setting [2], 3.16 ± 1.2.

In the case of SLDGRDPGNGTHGLSPEEKEQLSN [ELOA2], the protein stability index by setting is: under setting [1], 5.48 ± 0.23; under setting [2], 5.64 ± 0.16.

In the case of SLDISGHMILENCSISKMEEEAGQ [ZER1], the protein stability index under setting [1] came out at 4.66 ± 0.22 and the protein stability index under setting [2] worked out at 4.68 ± 0.22.

SLGAVGEGFHNYHHSFPYDYSASE [SCD] came in with a protein stability index under setting [1] of 3.81 ± 0.24 and a protein stability index under setting [2] of 3.88 ± 0.28.

Consider SLKLIKRLYVDKSLNLSTEFISST [SERPINB5], for which the protein stability index came to 2.38 ± 0.26 under setting [1] and 2.11 ± 0.15 under setting [2].

For the sequence SLNMSRRDSESTRHDSETEDMLWD [PHTF1], the protein stability index amounted to 5.32 ± 0.15 under setting [1] and 5.26 ± 0.2 under setting [2].

Turning to SLQEEPVEGFRITLVDESDLYNWE [UBE2R2], the protein stability index is, setting by setting: under setting [1], 3.66 ± 0.49; under setting [2], 3.58 ± 0.4.

SMAAVPTLELCHDELFADLFNSNH [CEBPD] came in with a protein stability index under setting [1] of 3.57 ± 0.3 and a protein stability index under setting [2] of 3.6 ± 0.26.

Regarding SNDFKSVLEVRTENLKQQRSRREQ [STX5], the protein stability index was found to be 4.9 ± 0.21 under setting [1] and 4.92 ± 0.31 under setting [2].

As to SNFETYPENDWDTAAPVPQKDLEI [PRKX], the protein stability index by setting is: under setting [1], 5.03 ± 0.12; under setting [2], 5.15 ± 0.2.

SNNKKNDEMQEVPNRVLAPEQSLK [SPANXN3]: the protein stability index by setting is: under setting [1], 5.27 ± 0.16; under setting [2], 5.36 ± 0.17.

For SPAGELPKTVQQPTESEPVTINIQ [MATN2], the protein stability index runs as follows: under setting [1], 5.29 ± 0.31; under setting [2], 5.24 ± 0.38.

For SPAPLDTCPSSSTASSISSSGGSS [DYRK1B], the protein stability index is, setting by setting: under setting [1], 5.33 ± 0.16; under setting [2], 5.35 ± 0.088.

Take SPINSPARGTPSPKRMPSGRGGRD [FSD1]: the protein stability index under setting [1] amounted to 5.22 ± 0.15 and the protein stability index under setting [2] was found to be 5.04 ± 0.35.

In the case of SPLHAAAEAGHVDICHMLVQFCRL [EHMT1], the protein stability index is, setting by setting: under setting [1], 2.25 ± 0.069; under setting [2], 2.5 ± 0.37.

Regarding SPSFPEAPDSGRSAPYSAAFLELP [TBX6], the protein stability index under setting [1] came out at 3.96 ± 0.3 and the protein stability index under setting [2] came out at 3.93 ± 0.44.

In the case of SQEYQILLDVKTRLEQEIATYRRL [KRT16], the protein stability index by setting is: under setting [1], 2.71 ± 0.34; under setting [2], 2.88 ± 0.44.

For the sequence SQKATRECEKSALTPGFSDNAIML [FAN1], the protein stability index under setting [1] was found to be 3.85 ± 0.22 and the protein stability index under setting [2] came out at 3.98 ± 0.17.

With SQKEMDKAETKTKKAAESLRRSVE [FCHO1], the protein stability index runs as follows: under setting [1], 5.24 ± 0.29; under setting [2], 5.23 ± 0.38.

Turning to SQKGCLALSLLELLGFNLTFVFLA [CLCN6], the protein stability index under setting [1] stood at 3.15 ± 0.42 and the protein stability index under setting [2] is 3.03 ± 0.42.

As to SQLDSGVSQAVEGPEELSRSSSES [RIPK4], the protein stability index is 5.5 ± 0.087 under setting [1] and 5.54 ± 0.26 under setting [2].

Regarding SQMPPPAGGTSDDPEPSGPHLPRV [SCNN1D], the protein stability index stood at 5.23 ± 0.31 under setting [1] and 5.43 ± 0.12 under setting [2].

Take SQQQNMMQDYVRTGTYQRAILQNH [CARM1]: the protein stability index is, setting by setting: under setting [1], 3.21 ± 0.27; under setting [2], 3.12 ± 0.23.

SREKTACAINKVGVSFSTVENELM [FAM98B]: the protein stability index is, setting by setting: under setting [1], 3.35 ± 0.28; under setting [2], 3.63 ± 0.5.

With SRESSKPRAVLKPRRVCVGGKRRR [PPP2R2C], the protein stability index amounted to 4.94 ± 0.33 under setting [1] and 4.87 ± 0.19 under setting [2].

Take SRSSILVQHQRVHTGEKPYKCLEC [ZNF24]: the protein stability index is, setting by setting: under setting [1], 3.54 ± 0.19; under setting [2], 3.65 ± 0.23.

As for SSEVGPFVSKIRAVINDIANLPVP [AUH], the protein stability index reads like this: under setting [1], 2.64 ± 0.25; under setting [2], 2.62 ± 0.42.

As to SSFSLLLDLLSELYQKQPKIGYHL [INTS3], the protein stability index reads like this: under setting [1], 3.05 ± 0.2; under setting [2], 2.86 ± 0.62.

In the case of SSGNTVLLLILCMQHSFPEPGRLY [TMEM192], the protein stability index runs as follows: under setting [1], 3.1 ± 0.73; under setting [2], 3.09 ± 0.53.

Take SSSFSNLDLSEEDSDDPSVTLELS [VDR]: the protein stability index is 5.35 ± 0.23 under setting [1] and 5.16 ± 0.28 under setting [2].

Turning to SSSSSASSSASSSFSEEGAVGYSS [NFE2L1], the protein stability index reads like this: under setting [1], 5.25 ± 0.16; under setting [2], 5.32 ± 0.13.

For the sequence SSSSSSQAPGQPPGNQAEHGAVTV [ZBTB22], the protein stability index is, setting by setting: under setting [1], 5.12 ± 0.15; under setting [2], 5.08 ± 0.24.

In turn, SSYVASIVDGGESRSEKGDSSRY [RBMY1A1] displayed a protein stability index under setting [3] of 4.35 ± 0.28 and a protein stability index under setting [4] of 4.27 ± 0.35.

On to STALERPSFLSQTGHGVSRGPSPV [FCHO1], for which the protein stability index is, setting by setting: under setting [1], 4.1 ± 0.34; under setting [2], 4.28 ± 0.42.

On to STNEEEKEENEAESDVKHRTRDYK [PRIM1], for which the protein stability index by setting is: under setting [1], 5.57 ± 0.17; under setting [2], 5.16 ± 0.47.

On to STNLGVNQAGFTLHSAIYAARPDV [ADD1], for which the protein stability index reads like this: under setting [1], 3.02 ± 0.18; under setting [2], 3.08 ± 0.35.

STSFRVYIMAFDIKSEDMLKILKP [FBXO33]: the protein stability index is, setting by setting: under setting [1], 2.14 ± 0.59; under setting [2], 3.02 ± 0.51.

As to SVHNDLWESWFVPDPAGIFKLNHH [GLT8D2], the protein stability index by setting is: under setting [1], 2.38 ± 0.18; under setting [2], 2.53 ± 0.22.

SVNTHDYAKVKEFIVDILQFLDIG [MATN2]: the protein stability index is, setting by setting: under setting [1], 2.23 ± 0.35; under setting [2], 2.05 ± 0.32.

Turning to SVSKAQSIYGIPHSTLEYKVKERL [LCOR], the protein stability index is, setting by setting: under setting [1], 3.42 ± 0.43; under setting [2], 3.54 ± 0.13.

For the sequence SVTDVTTSSLRLNWEAPPGAFDSF [TNXB], the protein stability index is, setting by setting: under setting [1], 3.54 ± 0.2; under setting [2], 3.35 ± 0.16.

As for SVVGTVLAATQAEKAVANFDRTEW [ZC2HC1C], the protein stability index came to 3.26 ± 0.21 under setting [1] and 3.26 ± 0.3 under setting [2].

For the sequence SVVPEMEESGAQLLLEMLTFNPHK [CDK4], the protein stability index is, setting by setting: under setting [1], 3.14 ± 0.26; under setting [2], 3.15 ± 0.38.

Regarding SWAWRGPGVLKVLWLTASQPCSIV [LPCAT4], the protein stability index stood at 2.74 ± 1.1 under setting [1] and 2.52 ± 0.84 under setting [2].

For the sequence SWYPKANNQDFIPFTKKRVGVDRA [ZC2HC1C], the protein stability index was found to be 3.07 ± 0.33 under setting [1] and 2.94 ± 0.15 under setting [2].

Regarding SYAHGWMFQGWNCGDYFPDGITNG [CPN1], the protein stability index reads like this: under setting [1], 2.35 ± 0.18; under setting [2], 2.27 ± 0.17.

For SYSTQASAAAATAELLKKQEELNR [SCAMP3], the protein stability index was found to be 4.99 ± 0.19 under setting [1] and 5.03 ± 0.11 under setting [2].

In turn, SYTIITPLFNPMIYSLRNKEFKSA [OR10K2] came in with a protein stability index under setting [1] of 2.74 ± 0.65 and a protein stability index under setting [2] of 2.38 ± 0.34.

Regarding TAIFYTLMTCEMLNRRNGSLRIAL [EDNRA], the protein stability index was 2.85 ± 0.21 under setting [1] and 3.15 ± 0.42 under setting [2].

With TAPRTLPSCLACNRQCLCSAESMV [SPRY1], the protein stability index by setting is: under setting [1], 2.75 ± 0.34; under setting [2], 2.59 ± 0.48.

As to TAPSGGQWGAEPEGSCYQTFRQYC [RNF208], the protein stability index by setting is: under setting [1], 2.75 ± 0.29; under setting [2], 2.89 ± 0.18.

In the case of TASLLLCPGGLDHKLNLRGKAWG [TIAF1], the protein stability index runs as follows: under setting [3], 2.98 ± 0.22; under setting [4], 2.59 ± 0.67.

With TAWTEACQVEVRLLLAYNSSARIP [INTS4], the protein stability index is, setting by setting: under setting [1], 3.03 ± 0.4; under setting [2], 2.43 ± 0.49.

As for TCSTRFVSGGSAGGYGGGVSCGFG [KRT13], the protein stability index is, setting by setting: under setting [1], 2.46 ± 0.29; under setting [2], 2.43 ± 0.31.

With TDQPPLVQAIFSGDPEEIRMLIHK [ANKRD44], the protein stability index runs as follows: under setting [1], 3.31 ± 0.28; under setting [2], 3.48 ± 0.3.

As for TDRIAAAQYSVTGSAVARAVCKAT [SNAP91], the protein stability index runs as follows: under setting [1], 3.9 ± 0.24; under setting [2], 3.94 ± 0.19.

Sequence TDVRGLEEFLSAMQSARGPTPSSP [PLEKHN1] displayed a protein stability index under setting [1] of 4.12 ± 0.16 and a protein stability index under setting [2] of 4.14 ± 0.38.

As for TECEGDIQKNYECANFGDQGITMG [LOXL2], the protein stability index is, setting by setting: under setting [1], 4.94 ± 0.11; under setting [2], 5.04 ± 0.19.

Consider TFNPHKRISAFRALQHSYLHKDEG [CDK4], for which the protein stability index is, setting by setting: under setting [1], 2.87 ± 0.14; under setting [2], 3.12 ± 0.09.

For TFVSTCQAIDATVAAELLNHLLES [HES6], the protein stability index reads like this: under setting [1], 2.48 ± 0.35; under setting [2], 2.48 ± 0.32.

On to TGEKPHTCSECGKGFIQKGNLNIH [ZNF649], for which the protein stability index is, setting by setting: under setting [1], 3.14 ± 0.25; under setting [2], 3.54 ± 0.16.

Consider TGGLLPIKRTIRVLDVNNQSFREQ [NET1], for which the protein stability index runs as follows: under setting [1], 2.92 ± 0.13; under setting [2], 3.03 ± 0.24.
